Results on three substances are retold here after PMC10419011.

Some results are limits rather than exact numbers.

For experiment [1], the target named is HA-Y2R-eYFP_N1 C123^3.25A (human) (UniProt P49146).
The target of experiment [2] is HA-Y2R-eYFP_N1 C203^45.50A (human) (UniProt P49146).
The target of experiment [3] is Y1R-eYFP_N1 C113^3.25A (human) (UniProt P25929).
Experiment [4] has as its target Y1R-eYFP_N1 C198^45.50A (human) (UniProt P25929).
The target of experiment [5] is FLAG-CRF1R-eGFP_N1 (wild-type corticotropin-releasing factor receptor 1, R2 isoform) (human (by the printed accession)) (UniProt P34998). As to the kind of experiment: FRET or BRET; arrestin recruitment in live HEK293 cells: Nluc-arr3 (donor) and FLAG-CRF1R-eGFP (acceptor), stimulated with CRF (up to 10 µM). For orientation: Bioluminescence resonance energy transfer reports proximity on the nanometre scale.

Experiment [6] concerns the target FLAG-CRF1R-eGFP_N1 C188^3.29A (human (by the printed accession)) (UniProt P34998). Described as above.
The target of experiment [7] is MOR-eYFP_pVitro2 (wild-type µ-type opioid receptor) (UniProt P35372). As to the kind of experiment: FRET or BRET; arrestin recruitment in live HEK293 cells: Nluc-arr3 (donor) and MOR-eYFP (acceptor), stimulated with β-endorphin (0.01 nM to 10 µM).
The target is the same in experiment [8]. The experiment in a line: FRET or BRET; arrestin recruitment in live HEK293 cells: Nluc-arr3 (donor) and MOR-eYFP (acceptor), stimulated with endomorphin-1 (0.01 nM to 10 µM).
Experiment [9] addresses AT1R-eYFP_N1 (wild-type angiotensin II type 1 receptor) (UniProt P30556). The experiment in a line: FRET or BRET; arrestin recruitment in live HEK293 cells: Nluc-arr3 (donor) and AT1R-eYFP (acceptor), stimulated with agonist peptide (angiotensin II; 0.01 nM to 10 µM).
The target of experiment [10] is HA-Y2R-eYFP_N1 (wild-type neuropeptide Y2 receptor) (human) (UniProt P49146). The experiment in a line: FRET or BRET; arrestin recruitment in live HEK293 cells: Nluc-arr3 (donor) and receptor-eYFP (acceptor) co-transfected, stimulated with NPY (0.01 nM to 10 µM), HBSS with 20 mM HEPES pH 7.4, read 5, 10 and 15 min after stimulation.
Experiment [11] has as its target Y1R-eYFP_N1 (wild-type neuropeptide Y1 receptor) (human) (UniProt P25929). The experiment is described as above.
For experiment [12], the target named is Nluc-Y1R-eYFP_N1 C113^3.25A (human) (UniProt P25929). The experiment in a line: FRET or BRET; NanoBRET ligand binding: membrane preparations of HEK293 cells with Nluc-Y1/2R-eYFP, TAMRA-labeled peptide titrated, 10 min at room temperature, HBSS with 20 mM HEPES pH 7.4, 0.1% BSA; unspecific binding (excess unlabeled NPY or antagonist) subtracted; biphasic fit.

Experiment [13] concerns the target Nluc-Y2R-eYFP_N1 (wild-type neuropeptide Y2 receptor) (human) (UniProt P49146). The experiment is described as above.

Chain of Nluc-tagged bovine arrestin3 (P32120 whole entry): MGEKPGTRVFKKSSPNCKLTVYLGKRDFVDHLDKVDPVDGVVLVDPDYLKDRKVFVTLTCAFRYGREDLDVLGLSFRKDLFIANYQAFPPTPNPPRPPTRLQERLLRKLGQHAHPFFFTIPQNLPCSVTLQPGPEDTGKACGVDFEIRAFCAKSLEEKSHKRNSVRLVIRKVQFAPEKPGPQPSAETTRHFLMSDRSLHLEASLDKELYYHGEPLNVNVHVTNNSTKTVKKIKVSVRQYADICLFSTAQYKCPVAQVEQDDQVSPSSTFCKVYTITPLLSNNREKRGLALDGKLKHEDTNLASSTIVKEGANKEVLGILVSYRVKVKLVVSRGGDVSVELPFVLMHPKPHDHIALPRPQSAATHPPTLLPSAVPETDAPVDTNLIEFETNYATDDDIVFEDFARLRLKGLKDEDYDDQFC
Chain of Y1R-eYFP_N1 (wild-type neuropeptide Y1 receptor) (human) (P25929 whole entry): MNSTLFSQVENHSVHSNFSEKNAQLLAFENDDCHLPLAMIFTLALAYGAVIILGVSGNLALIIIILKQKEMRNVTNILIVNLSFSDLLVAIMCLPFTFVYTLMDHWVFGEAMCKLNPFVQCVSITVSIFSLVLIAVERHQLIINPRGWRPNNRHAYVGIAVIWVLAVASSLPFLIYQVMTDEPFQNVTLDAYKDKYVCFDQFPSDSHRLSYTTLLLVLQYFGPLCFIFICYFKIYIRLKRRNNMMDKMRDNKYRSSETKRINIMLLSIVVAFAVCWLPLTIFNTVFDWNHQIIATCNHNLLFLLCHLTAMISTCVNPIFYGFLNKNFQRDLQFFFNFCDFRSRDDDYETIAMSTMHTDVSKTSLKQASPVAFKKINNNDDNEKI
Chain of FLAG-CRF1R-eGFP_N1 C188^3.29A (human (by the printed accession)) (P34998 24-415 C188A): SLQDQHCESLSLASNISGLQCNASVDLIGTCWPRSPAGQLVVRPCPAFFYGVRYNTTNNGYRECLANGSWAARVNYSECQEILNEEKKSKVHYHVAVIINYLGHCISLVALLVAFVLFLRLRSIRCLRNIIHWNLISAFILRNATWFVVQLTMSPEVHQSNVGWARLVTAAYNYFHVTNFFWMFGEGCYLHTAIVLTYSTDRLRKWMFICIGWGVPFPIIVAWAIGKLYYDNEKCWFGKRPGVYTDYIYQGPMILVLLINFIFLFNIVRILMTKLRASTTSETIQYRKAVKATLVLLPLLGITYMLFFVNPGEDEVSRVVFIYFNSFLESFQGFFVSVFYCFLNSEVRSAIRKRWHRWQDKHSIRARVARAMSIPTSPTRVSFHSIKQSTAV
Chain of FLAG-CRF1R-eGFP_N1 (wild-type corticotropin-releasing factor receptor 1, R2 isoform) (human (by the printed accession)) (P34998 24-415): as the sequence (P34998 24-415 C188A) above, with A165C counted along it
Chain of Y1R-eYFP_N1 C198^45.50A (human) (P25929 whole entry C198A, canonical isoform): as the sequence (P25929 whole entry) above, with C198A counted along it
Chain of Nluc-Y1R-eYFP_N1 C113^3.25A (human) (P25929 whole entry C113A): as the sequence (P25929 whole entry) above, with C113A counted along it
Chain of Y1R-eYFP_N1 C113^3.25A (human) (P25929 whole entry C113A): as the sequence (P25929 whole entry) above, with C113A counted along it
Chain of AT1R-eYFP_N1 (wild-type angiotensin II type 1 receptor) (P30556 whole entry): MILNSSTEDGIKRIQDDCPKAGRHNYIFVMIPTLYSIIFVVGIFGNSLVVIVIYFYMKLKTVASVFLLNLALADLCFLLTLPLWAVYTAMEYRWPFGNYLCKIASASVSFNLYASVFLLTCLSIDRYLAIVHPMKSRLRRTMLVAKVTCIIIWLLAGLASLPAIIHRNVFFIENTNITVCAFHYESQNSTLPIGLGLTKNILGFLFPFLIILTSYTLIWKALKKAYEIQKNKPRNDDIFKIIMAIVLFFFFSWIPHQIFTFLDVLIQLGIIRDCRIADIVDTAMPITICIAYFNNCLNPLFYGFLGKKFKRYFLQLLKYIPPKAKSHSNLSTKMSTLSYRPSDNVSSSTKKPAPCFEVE

With “neuropeptide Y (NPY) (from UniProt P01303 29-64)”, the cAMP reporter gene assay (Gi/o pathway): shift of the EC50 of NPY against wild-type Y2R; full activation at 10 µM NPY in experiment [1] and in experiment [2] was 10000 fold throughout. The inositol monophosphate accumulation via chimeric G-protein: shift of EC50 against wild-type Y1R (41% loss of Emax) in experiment [3] was 26 fold. The inositol monophosphate accumulation via chimeric G-protein: shift of EC50 against wild-type Y1R (57% loss of Emax) in [4] worked out at 50 fold.
On to “Nluc-tagged bovine arrestin3 (from UniProt P32120 1-420) (natural protein)”, for which the EC50 of the agonist CRF for arrestin3 recruitment in experiment [5] was 37 nM. In addition, the fold shift in the agonist's EC50 for arrestin3 recruitment against wild-type CRF1R in experiment [6] was found to be 8 fold. For the same substance, the EC50 of the agonist β-endorphin for arrestin3 recruitment in experiment [7] is over 3000 nM. In experiment [8], this substance registered an EC50 of the agonist endomorphin-1 for arrestin3 recruitment of 375 nM. Besides, the EC50 of the agonist for arrestin3 recruitment in [9] was found to be 3.6 nM. For the same substance, the EC50 of the agonist NPY for arrestin3 recruitment turned out to be 96 nM in [10] and 8 nM in experiment [11].
Regarding K^18-TAMRA-NPY (peptide), in [12], the fold shift in Kd against wild-type Y1R was 7 fold. In [13], this substance registered a Kd of the high-affinity state of 2.3 nM and a Kd of the low-affinity state of 267 nM.
